In patent JP2015180231A one finds RSV-A2ウイルスに対して最大活性の半分を阻害する濃度(IC50) (microneutralisation) data, which are given here for one substance.

This assay concerns the target RSV融合(F)タンパク質 (RSV fusion (F) protein), on RSV-infected HEp2 cells (respiratory syncytial virus (RSV)) (UniProt P03420). The experiment in a line: cell-based or functional assay.
Sequence of UniProt P03420 (P03420 26-574): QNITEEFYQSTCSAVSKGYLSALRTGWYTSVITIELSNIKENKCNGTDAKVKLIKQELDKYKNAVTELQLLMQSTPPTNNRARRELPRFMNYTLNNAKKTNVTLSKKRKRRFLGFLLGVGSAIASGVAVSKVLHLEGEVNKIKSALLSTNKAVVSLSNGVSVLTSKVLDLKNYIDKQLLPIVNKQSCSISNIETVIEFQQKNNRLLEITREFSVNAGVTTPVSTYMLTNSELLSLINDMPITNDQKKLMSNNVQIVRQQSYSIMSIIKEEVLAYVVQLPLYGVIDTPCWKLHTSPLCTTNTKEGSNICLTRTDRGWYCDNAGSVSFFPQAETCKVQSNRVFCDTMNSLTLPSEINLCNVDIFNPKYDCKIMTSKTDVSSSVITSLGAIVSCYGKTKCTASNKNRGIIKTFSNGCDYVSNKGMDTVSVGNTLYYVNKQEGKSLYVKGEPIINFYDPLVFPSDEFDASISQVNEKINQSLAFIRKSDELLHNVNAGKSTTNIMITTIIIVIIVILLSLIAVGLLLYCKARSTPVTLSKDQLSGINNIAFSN

For the substance “抗RSV抗体D25 (anti-RSV monoclonal antibody D25)”, the RSV-A2ウイルスに対して最大活性の半分を阻害する濃度(IC50) (microneutralisation) amounted to 2.1 ng/mL.
